Bridge positions count the residues as written; N and C are the ends.
B1: SEQ ID NO:487 (peptide)
peptide: Ac-GDSSVCFEYSWGGEVCFRYDPGGGK-NH2
modifications: disulfide 6-16 (inferred); not fully specified; also: C-terminal Lys fluorescein-labeled in some assay forms
B2: SEQ ID NO:284 (peptide)
peptide: Ac-AGVGWVECYQSTGFCYHSRDGTGGGK-NH2
modifications: cysteine pairing not given here; also: C-terminal Lys fluorescein-labeled in some assays
B3: SEQ ID NO:278 (peptide)
peptide: Ac-AGSKWCEQDWYYCWLLGTGGGK-NH2
modifications: disulfide 6-13 (inferred); not fully specified
B4: SEQ ID NO:288 (peptide)
peptide: Ac-AGGGWVECYWATGRCIEFAGGTGGGK-NH2
modifications: disulfide 8-15 (inferred); not fully specified
B5: SEQ ID NO:275 (peptide)
peptide: Ac-AGPDWCAADWYYCYITGTGGGK-NH2
modifications: disulfide 6-13 (inferred); not fully specified
B6: SEQ ID NO:272 (peptide)
peptide: Ac-AGANWCEEDWYYCWITGTGGGK-NH2
modifications: disulfide 6-13 (inferred); not fully specified
B7: SEQ ID NO:273 (peptide)
peptide: Ac-AGPDWCEEDWYYCWITGTGGGK-NH2
modifications: disulfide 6-13 (inferred); not fully specified
B8: SEQ ID NO:281 (peptide)
peptide: Ac-AGANWCEEDWYYCYITGTGGGK-NH2
modifications: disulfide 6-13 (inferred); not fully specified
B9: SEQ ID NO:271 (peptide)
peptide: Ac-AGANWCEEDWYYCFITGTGGGK-NH2
modifications: disulfide 6-13 (inferred); not fully specified
B10: SEQ ID NO:280 (peptide)
peptide: Ac-AGVNWCEEDWYYCWITGTGGGK-NH2
modifications: disulfide 6-13 (inferred); not fully specified
B11: SEQ ID NO:274 (peptide)
peptide: Ac-AGSNWCEEDWYYCYITGTGGGK-NH2
modifications: disulfide 6-13 (inferred); not fully specified
B12: SEQ ID NO:279 (peptide)
peptide: Ac-AGRNWCEEDWYYCFITGTGGGK-NH2
modifications: disulfide 6-13 (inferred); not fully specified
B13: SEQ ID NO:309 (peptide)
peptide: Ac-AQRSWYLGPPYYEEWDPIPNGGK-NH2
modifications: not fully specified
B14: SEQ ID NO:317 (peptide)
peptide: Ac-SGRLDCDKVFSGPHGKICVNYGSGGGK-NH2
modifications: disulfide 6-18 (inferred); not fully specified
B15: SEQ ID NO:312 (peptide)
peptide: Ac-AGPWTCWLEDHLACAMLGTGGGK-NH2
modifications: disulfide 6-14 (inferred); not fully specified
B16: SEQ ID NO:270 (peptide)
peptide: Ac-AGSDWCRVDWYYCWLMGTGGGK-NH2
modifications: disulfide 6-13 (inferred); not fully specified
B17: SEQ ID NO:298 (peptide)
peptide: Ac-GDPAQCWESNYQGIFFCDNPDPGGGK-NH2
modifications: disulfide 6-17 (inferred); not fully specified
B18: SEQ ID NO:304 (peptide)
peptide: Ac-AQQVQYQFFLGTPRYEQWDLDKGGK-NH2
modifications: not fully specified
B19: SEQ ID NO:266 (peptide)
peptide: Ac-AGWVECWWKSGQCYEFGTGGGK-NH2
modifications: cysteine pairing not given here; also: C-terminal Lys fluorescein-labeled for some assays, unlabeled for others
B20: SEQ ID NO:297 (peptide)
peptide: Ac-GDDSYCMMNEKGWWNCYLYDPGGGK-NH2
modifications: cysteine pairing not given here; also: C-terminal Lys fluorescein-labeled in some assays
B21: SEQ ID NO:292 (peptide)
peptide: Ac-AGEGWVECFANTGACFTYPRGTGGGK-NH2
modifications: disulfide 8-15 (inferred); not fully specified
B22: SEQ ID NO:282 (peptide)
peptide: Ac-AGQAWVECYAETGYCWPRSWGTGGGK-NH2
modifications: disulfide 8-15 (inferred); not fully specified
B23: SEQ ID NO:283 (peptide)
peptide: Ac-AGQAWIECYAEDGYCWPRSWGTGGGK-NH2
modifications: disulfide 8-15 (inferred); not fully specified
B24: SEQ ID NO:302 (peptide)
peptide: Ac-GDNWKCEYTQGYDYTECVYLDPGGGK-NH2
modifications: disulfide 6-17 (inferred); not fully specified
B25: SEQ ID NO:318 (peptide)
peptide: Ac-SGRTTCHHQISGPHGKICVNYGSGGGK-NH2
modifications: disulfide 6-18 (inferred); not fully specified
B26: SEQ ID NO:315 (peptide)
peptide: Ac-GSNSHCYIWDGMWLCFPDAPGGGK-NH2
modifications: disulfide 6-15 (inferred); not fully specified
B27: SEQ ID NO:488 (peptide)
peptide: Ac-GDSRVCWEYSWGGQICLGYDPGGGK-NH2
modifications: disulfide 6-16 (inferred); not fully specified; also: C-terminal Lys fluorescein-labeled in some assay forms
B28: SEQ ID NO:291 (peptide)
peptide: Ac-AGVAWVECYQTTGKCYTFRGGTGGGK-NH2
modifications: disulfide 8-15 (inferred); not fully specified
B29: SEQ ID NO:276 (peptide)
peptide: Ac-AGPEWCEVDWYYCWLLGTGGGK-NH2
modifications: disulfide 6-13 (inferred); not fully specified
B30: SEQ ID NO:319 (peptide)
peptide: Ac-SGAHQCHHWTSGPYGEVCFNYGSGGGK-NH2
modifications: disulfide 6-18 (inferred); not fully specified
B31: SEQ ID NO:289 (peptide)
peptide: Ac-AGERWVECRAETGFCYTWVSGTGGGK-NH2
modifications: disulfide 8-15 (inferred); not fully specified
B32: SEQ ID NO:285 (peptide)
peptide: Ac-AGFTWVECHQATGRCVEWTTGTGGGK-NH2
modifications: disulfide 8-15 (inferred); not fully specified
B33: SEQ ID NO:296 (peptide)
peptide: Ac-GDPPLCYFVGTQEWHHCNPFDPGGGK-NH2
modifications: disulfide 6-17 (inferred); not fully specified
B34: SEQ ID NO:287 (peptide)
peptide: Ac-AGDSWVECDAQTGFCYSFLYGTGGGK-NH2
modifications: disulfide 8-15 (inferred); not fully specified
B35: SEQ ID NO:290 (peptide)
peptide: Ac-AGGGWVECRAETGHCQEYRLGTGGGK-NH2
modifications: disulfide 8-15 (inferred); not fully specified
B36: SEQ ID NO:268 (peptide)
peptide: Ac-AGWIQCNSITGHCTSGGTGGGK-NH2
modifications: disulfide 6-13 (inferred); not fully specified
B37: SEQ ID NO:316 (peptide)
peptide: Ac-SGRLDCDKVFSGPYGKVCVSYGSGGGK-NH2
modifications: disulfide 6-18 (inferred); not fully specified
B38: SEQ ID NO:313 (peptide)
peptide: Ac-AGDWGCSLGNWYWCSTEGTGGGK-NH2
modifications: disulfide 6-14 (inferred); not fully specified
B39: SEQ ID NO:265 (peptide)
peptide: Ac-AGVWECAKTFPFCHWFGTGGGK-NH2
modifications: disulfide 6-13 (inferred); not fully specified
B40: phage isolate PKWCEEDWYYCMIT (peptide)
peptide: PKWCEEDWYYCMIT
B41: phage isolate ANWCEEDWYYCFIT (peptide)
peptide: ANWCEEDWYYCFIT
B42: phage isolate ANWCEEDWYYCYIT (peptide)
peptide: ANWCEEDWYYCYIT
B43: phage isolate ANWCEEDWYYCWIT (peptide)
peptide: ANWCEEDWYYCWIT
B44: phage isolate SDWCRVDWYYCWLM (peptide)
peptide: SDWCRVDWYYCWLM

The binders below were run against T1, human KDR-Fc fusion (R&D Systems #357-KD-050) (human, UniProt P35968 20-764) (assay: fluorescence anisotropy, fluorescein-labeled peptide).
T1 construct: bought
T1 sequence (P35968 20-764): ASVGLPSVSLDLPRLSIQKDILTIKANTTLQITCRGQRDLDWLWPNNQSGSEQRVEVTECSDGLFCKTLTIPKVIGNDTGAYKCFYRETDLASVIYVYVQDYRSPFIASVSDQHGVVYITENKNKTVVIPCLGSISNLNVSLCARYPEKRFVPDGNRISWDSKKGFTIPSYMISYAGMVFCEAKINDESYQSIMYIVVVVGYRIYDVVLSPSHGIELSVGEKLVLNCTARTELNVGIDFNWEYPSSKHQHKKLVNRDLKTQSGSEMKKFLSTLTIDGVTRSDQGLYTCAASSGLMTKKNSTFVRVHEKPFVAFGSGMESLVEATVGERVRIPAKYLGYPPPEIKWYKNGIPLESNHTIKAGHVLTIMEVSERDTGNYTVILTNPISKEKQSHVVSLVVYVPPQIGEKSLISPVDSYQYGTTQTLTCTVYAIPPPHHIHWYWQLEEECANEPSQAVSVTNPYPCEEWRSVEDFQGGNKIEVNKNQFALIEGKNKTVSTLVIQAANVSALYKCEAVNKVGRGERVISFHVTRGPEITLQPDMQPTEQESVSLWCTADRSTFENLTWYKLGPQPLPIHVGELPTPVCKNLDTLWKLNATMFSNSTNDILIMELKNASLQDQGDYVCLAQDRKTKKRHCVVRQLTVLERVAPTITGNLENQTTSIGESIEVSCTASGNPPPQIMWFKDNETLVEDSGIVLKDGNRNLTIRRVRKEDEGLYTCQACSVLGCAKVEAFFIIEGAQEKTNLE

| Binder | Kd | binding result |
| --- | --- | --- |
| B1 | 58 nM | – |
| B2 | 1300 nM | – |
| B3 | 400 nM | – |
| B4 | – | no binding |
| B5 | 57 nM | – |
| B6 | 97 nM | – |
| B7 | 75 nM | – |
| B8 | 180 nM | – |
| B9 | 310 nM | – |
| B10 | 260 nM | – |
| B11 | 46 nM | – |
| B12 | 190 nM | – |
| B13 | 1800 nM | – |
| B14 | ~2000 nM | – |
| B15 | 3900 nM | – |
| B16 | 64 nM | – |
| B17 | 2300 nM | – |
| B18 | 1700 nM | – |
| B19 | 1300 nM | – |
| B20 | 1300 nM | – |

| Binder | Kd | binding result |
| --- | --- | --- |
| B21 | 2100 nM | – |
| B22 | 710 nM | – |
| B23 | 1400 nM | – |
| B24 | 820 nM | – |
| B25 | 650 nM | – |
| B26 | 740 nM | – |
| B27 | 320 nM | – |
| B28 | ~2000 nM | – |
| B29 | 75 nM | – |
| B30 | ~2000 nM | – |
| B31 | 2100 nM | – |
| B32 | 2000 nM | – |
| B33 | 600 nM | – |
| B34 | 2300 nM | – |
| B35 | 1600 nM | – |
| B36 | 240 nM | – |
| B37 | 1050 nM | – |
| B38 | 2000 nM | – |
| B39 | 2600 nM | – |

Each binder was assayed against T1, human KDR-Fc fusion (R&D Systems …) (assay: phage binding screen on KDR-Fc; class legend in paragraph 246).

| Binder | binding result |
| --- | --- |
| B40 | binds |
| B41 | binds |
| B42 | binds |
| B43 | binds |
| B44 | binds |
